B1: nutL boxA-spacer (ssRNA)
RNA: CGCUCUUAAAAAUUAA
B2: nutR boxA-spacer (ssRNA)
RNA: CGCUCUUACACAUUCCA
B3: nutL boxA-spacer (mut) (ssRNA)
RNA: CGCUCUUAAAAAGGAA
B4: nutR spacer (ssRNA)
RNA: CACAUUCCA
B5: rrn cac-boxA-spacer (ssRNA)
RNA: CACUGCUCUUUAACAAUUUA
B6: rrn spacer (III) (ssRNA)
RNA: ACAAUUUA
B7: nutL spacer (ssRNA)
RNA: AAAAUUAA
B8: nutR boxB (structured_RNA)
RNA: AGCCCUGAAAAAGGGC
B9: nutR boxA5-spacer (ssRNA)
RNA: CUCUCUUACACAUUCCA
B10: nutR boxA (same sequence as nutL boxA) (ssRNA)
RNA: CGCUCUUA
B11: nutR boxA16-spacer (ssRNA)
RNA: CGCUAUUACACAUUCCA

biological target: NusA-SKK (Escherichia coli, UniProt P0AFF6 132-348); assay: fluorescence anisotropy
Sequence (P0AFF6 132-348): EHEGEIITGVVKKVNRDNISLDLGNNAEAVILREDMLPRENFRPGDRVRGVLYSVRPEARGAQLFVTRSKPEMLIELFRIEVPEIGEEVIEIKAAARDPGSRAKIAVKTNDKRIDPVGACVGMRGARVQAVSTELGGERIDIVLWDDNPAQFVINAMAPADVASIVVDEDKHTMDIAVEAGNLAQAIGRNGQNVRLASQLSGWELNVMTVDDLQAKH

First: B1
Second: B2
The Kd of the first is 1.8-fold lower: 71 ± 4 µM for the first, 126 ± 4 µM for the second.

Going from B4 to B5, the Kd falls from 137 ± 17 µM to 14 ± 0.2 µM (9.8-fold). The second binds more tightly here.

Compared with B6, B7 is 3-fold lower in Kd: 71 ± 3.3 µM for the first, 24 ± 2.2 µM for the second. The second binds more tightly here.

B9 and B11 are within 1.5-fold of each other in Kd: 124 ± 7 µM for the first, 106 ± 4 µM for the second.

B3: no binding.
B8: no binding.
B10: no binding.

Reference: PMC2724277
